These results are taken from paper PMC3182822.

This assay deals with trypsin from bovine pancreas (bovine). Briefly: enzyme inhibition kinetics.
Sequence of trypsin from bovine pancreas (bovine) (P00760 24-246): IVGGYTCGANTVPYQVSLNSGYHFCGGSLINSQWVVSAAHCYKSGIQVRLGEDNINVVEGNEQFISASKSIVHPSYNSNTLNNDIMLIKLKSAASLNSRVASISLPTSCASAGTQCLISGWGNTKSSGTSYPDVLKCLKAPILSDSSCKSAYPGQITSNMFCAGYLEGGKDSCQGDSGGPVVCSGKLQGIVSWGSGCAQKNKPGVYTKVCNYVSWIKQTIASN

For orientation: Ki means a dissociation constant, usually derived from enzyme kinetics or from competition with a known ligand. The low end stands for a stronger hold on the target, the high end for a looser hold on the target. “ovomucoid trypsin inhibitor (from UniProt P01005 25-210) (natural protein)” displayed a Ki of 57 µM. This lies in the double-digit micromolar range.
